Assay [1] has as its target T1, human BCMA on the surface of RPMI8226 cells (human, UniProt Q02223 1-184).
T1 construct: whole, on cells; also called BCMA receptor; RPMI8226 (BCMA+)
T1 sequence (looked up): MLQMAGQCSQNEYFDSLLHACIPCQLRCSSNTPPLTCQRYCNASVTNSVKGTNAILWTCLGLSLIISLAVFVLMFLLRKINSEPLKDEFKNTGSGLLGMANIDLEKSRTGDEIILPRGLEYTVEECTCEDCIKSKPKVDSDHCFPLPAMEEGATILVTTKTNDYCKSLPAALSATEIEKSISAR
In words: flow cytometry on RPMI8226 (BCMA+) cells, anti-human Fc-PE, one antibody concentration (not given). (Flow cytometry measures light scatter and fluorescence of single cells or particles in a stream.)

Assay [2] addresses T2, human BCMA (soluble analyte of Examples 8 and 14) (human, UniProt Q02223 1-54, limits assumed).
T2 sequence (looked up): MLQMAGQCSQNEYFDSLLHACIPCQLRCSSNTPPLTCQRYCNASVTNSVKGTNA
In words: BLI competition, APRIL/TNFSF13 (competitor) on AR2G sensors, premix 710 nM antibody + 71 nM human BCMA; without antibody 0.6588 nm.

B1: Antibody 01-001 (antibody, human IgG1, kappa, L234A L235A, V domains shown)
VH: EVQLVQSGGGLVQPGGSLRLSCAVSGFTLSSSAMSWVRQAPGKGFEWVSGYNGGSDRAGFADSVEGRFTISRDNAKNTLYLQMNSLKPEDTAVYYCARYIANSGTYYWDYWGQGTLVTVSS
VL: QPVLTQPPSASGTPGQRVTISCSGSSSNIGSNTVNWYQQLPGTAPKLLIYNDSQRPSGVPDQFSGSKSGTSASLAISGLQSDNEADYYCAAWDGSLNVWMFGGGTKVTVLR
notes: Full-length human IgG1 with L234A/L235A (pEE-HCLALA IgG1 vector) and CK light chain constant domain (pEE-CK), made in CHO-T cells; also called candidate 01
Regarding B1, the “Fluorescent signal level (sample/background)” value in assay [1] worked out at 10.7. In addition, the “Response (premix of antibody and BCMA on APRIL sensors)” value (“Response” below) in assay [2] is -0.0081 nm.

B2: Antibody 01-026 (antibody, human IgG1, kappa, L234A L235A, V domains shown)
VH: EVQLVQSGGGLVQSGGSLRVSCAASGFTFSSGLMSWVRQAPGKGFEWVSGYNGGSDRAGYTDSVKGRFTISRDNAKNTLYLQMNSLKPEDTAVYYCARYIANSGTYYWDYWGQGTTVTVSS
VL: QSVLTQPPSVSGAPGQRVTISCTGSSSNIGAGYDVHWYQQLPGTAPKLVIYGNTNRPSGVPDRFSGSKSGTSASLAISGLQSEDEADYYCAAWDDSLNGWVFGGGTKLTVLR
notes: Full-length human IgG1 with L234A/L235A (pEE-HCLALA IgG1 vector) and CK light chain constant domain (pEE-CK), made in CHO-T cells; also called candidate 026
In the case of B2, the “Fluorescent signal level (sample/background)” value in assay [1] was 12.1. In addition, in assay [2], the “Response” value came out at 0.0111 nm.

B3: Antibody 01-016 (antibody, human IgG1, kappa, L234A L235A, V domains shown)
VH: EVQLVQSGGGLVQPGGSLRLSCAVSGFTFSSSVMSWVRQAPGKGFEWVSGYNGGSDRAGFADSVEGRFTISRDNAKNTLYLQMNSLKPEDTAVYYCARYIANSGTYYWDYWGQGTLVTVSS
VL: QPVLTQPPSVSEAPRQRVTISCSGSSSNIGNNAVNWYQQLPGKAPKLLIFKNNQRPSGVPDRFSGSKSGTSASLVISGLQSEDEADYYCAAWDGSLNAWMFGGGTKLTVLR
notes: Full-length human IgG1 with L234A/L235A (pEE-HCLALA IgG1 vector) and CK light chain constant domain (pEE-CK), made in CHO-T cells; also called candidate 016
B3: the “Fluorescent signal level (sample/background)” value in assay [1] is 7.87. Further, the “Response” value in assay [2] was -0.0062 nm.

B4: Antibody 01-030 (antibody, human IgG1, kappa, L234A L235A, V domains shown)
VH: EVQLVQSGGGLVQPGGSLRVSCAASGFSFSSGLMSWVRQAPGKGFEWVSGYNGGSDRAGFADSVEGRFTISRDNAKNTLYLQMNSLKPEDTAVYYCARYIANSGTYYWDYWGQGTLVTVSS
VL: QSALTQPPSASGTPGQRVTISCSGSISNIGSNTVNWYQHLPGTAPKLLIYNHNQRPSGVPDRFSGSTSGTSASLAISGLQSEDEADYFCATWDDSLSAWLFGGGTKLTVLR
notes: Full-length human IgG1 with L234A/L235A (pEE-HCLALA IgG1 vector) and CK light chain constant domain (pEE-CK), made in CHO-T cells; also called candidate 030
Turning to B4, in assay [1], the “Fluorescent signal level (sample/background)” value was 16.5. The “Response” value in assay [2] is -0.0066 nm.

B5: Antibody 01-006 (antibody, human IgG1, kappa, L234A L235A, V domains shown)
VH: EVQLVQSGGGLVQPGGSLRLSCSASGFTFSSGLMSWVRQAPGKGFEWVSGYNGGSDRAGYTDSVKGRFTISRDNAKNTLYLQMNSLKPEDTAVYYCARYIANSGTYYWDYWGQGTLVTVSS
VL: QAVLTQPPSVSGTPGQRVTISCSGSTSNIGHRTVNWYQQFPGAAPKLLIYRNNQRPSGVPARFSGSKSGTSASLAISGLQSEDEADYHCAAWDDSLTAWVFGGGTQLTVLR
notes: Full-length human IgG1 with L234A/L235A (pEE-HCLALA IgG1 vector) and CK light chain constant domain (pEE-CK), made in CHO-T cells; also called candidate 06
Regarding B5, the “Fluorescent signal level (sample/background)” value in assay [1] was determined as 9.61. Moreover, the “Response” value in assay [2] came to 0.0464 nm.

B6: Antibody 01-027 (antibody, human IgG1, kappa, L234A L235A, V domains shown)
VH: EVQLVQSGGGLVQSGGSLRVSCAASGFTFSSGLMSWVRQAPGKGFEWVSGYNGGSDRAGYTDSVKGRFTISRDNAKNTLYLQMNSLKPEDTAVYYCARYIANSGTYYWDYWGQGTTVTVSS
VL: QAVLTQPPSASGTPGQRVSISCSGGISNIGSNIVNWYQHLPGTAPKLLIYSGNQRPSGVPDRFSGSKSGTSASLAISGLQSEDEADYYCSSWDSDLRNWVFGGGTKLTVLR
notes: Full-length human IgG1 with L234A/L235A (pEE-HCLALA IgG1 vector) and CK light chain constant domain (pEE-CK), made in CHO-T cells; also called candidate 027
With B6, in assay [1], the “Fluorescent signal level (sample/background)” value turned out to be 19.1. The “Response” value in assay [2] was 0.017 nm.

B7: Antibody 01-037 (antibody, human IgG1, kappa, L234A L235A, V domains shown)
VH: EVQLVQSGGGLVQSGGSLRVSCAASGFTFSSGLMSWVRQAPGKGFEWVSGYNGGSDRAGYTDSVKGRFTISRDNAKNTLYLQMNSLKPEDTAVYYCARYIANSGTYYWDYWGQGTTVTVSS
VL: SYVLTQPPSASGTPGQRVTISCSGTRSNIGTNTVNWYQQLPGTAPKLLIYRNNQRPSGVPDRFSGSKSGTSASLAISGLQSEDEADYYCAVWDDRVSAWLFGGGTKLTVLR
notes: Full-length human IgG1 with L234A/L235A (pEE-HCLALA IgG1 vector) and CK light chain constant domain (pEE-CK), made in CHO-T cells; also called candidate 037
With B7, in assay [1], the “Fluorescent signal level (sample/background)” value was determined as 11.7. Besides, in assay [2], the “Response” value amounted to 0.0304 nm.

B8: Antibody 01-025 (antibody, human IgG1, kappa, L234A L235A, V domains shown)
VH: EVQLVQSGGGLVQSGGSLRVSCAASGFTFSSGLMSWVRQAPGKGFEWVSGYNGGSDRAGYTDSVKGRFTISRDNAKNTLYLQMNSLKPEDTAVYYCARYIANSGTYYWDYWGQGTTVTVSS
VL: QPVLTQPPSVSEAPRQRVTISCSGSSSNIGNNAVNWYQQLPGKAPKLLIYSTNQRPSGVPDRFSGSKSGTSASLAISGLQSEDEADYYCAAWDDRVSAWLFGGGTKLTVLR
notes: Full-length human IgG1 with L234A/L235A (pEE-HCLALA IgG1 vector) and CK light chain constant domain (pEE-CK), made in CHO-T cells; also called candidate 025
Regarding B8, the “Fluorescent signal level (sample/background)” value in assay [1] turned out to be 15. Besides, in assay [2], the “Response” value worked out at 0.0259 nm.

B9: Antibody 01-021 (antibody, human IgG1, kappa, L234A L235A, V domains shown)
VH: QVQLVQSGGGLVQPGGSLRLSCAASGFTFSSGLMSWVRQAPGKGFEWVSGYNGGSDRAGFADSVEGRFTISRDNAKNTLYLQMNSLKPEDTAVYYCARYIANSGTYYWDYWGQGTLVTVSS
VL: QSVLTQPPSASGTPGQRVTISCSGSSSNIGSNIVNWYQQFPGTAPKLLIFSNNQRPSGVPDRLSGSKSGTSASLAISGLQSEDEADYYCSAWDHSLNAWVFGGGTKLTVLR
notes: Full-length human IgG1 with L234A/L235A (pEE-HCLALA IgG1 vector) and CK light chain constant domain (pEE-CK), made in CHO-T cells; also called candidate 021
In the case of B9, in assay [1], the “Fluorescent signal level (sample/background)” value came to 9.99. In assay [2], the “Response” value is -0.0015 nm.

B10: Antibody 01-024 (antibody, human IgG1, kappa, L234A L235A, V domains shown)
VH: EVQLVQSGGGLVQSGGSLRVSCAASGFTFSSGLMSWVRQAPGKGFEWVSCYNGGSDRAGYTDSVKGRFTISRDNAKNTLYLQMNSLKPEDTAVYYCARYIANSGTYYWDYWGQGTTVTVSS
VL: QAVLTQPPSASGTPGQRVSISCSGGISNIGSNIVNWYQHLPGTAPKLLIYSGNQRPSGVPDRFSGSKSGTSASLAISGLQSEDEADYYCSSWDSDLRNWVFGGGTKLTVLR
notes: Full-length human IgG1 with L234A/L235A (pEE-HCLALA IgG1 vector) and CK light chain constant domain (pEE-CK), made in CHO-T cells; also called candidate 024
Turning to B10, in assay [1], the “Fluorescent signal level (sample/background)” value was found to be 19.9. Further, in assay [2], the “Response” value is 0.0151 nm.

B11: Antibody 01-022 (antibody, human IgG1, kappa, L234A L235A, V domains shown)
VH: EVQLVQSGGGLVQSGGSLRVSCAASGFTFSSGLMSWVRQAPGKGFEWVSGYNGGSDRAGYTDSVKGRFTISRDNAKNTLYLQMNSLKPEDTAVYYCARYIANSGTYYWDYWGQGTTVTVSS
VL: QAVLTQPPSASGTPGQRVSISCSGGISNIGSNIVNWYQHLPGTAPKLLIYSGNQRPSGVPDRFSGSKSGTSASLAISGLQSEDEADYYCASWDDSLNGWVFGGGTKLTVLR
notes: Full-length human IgG1 with L234A/L235A (pEE-HCLALA IgG1 vector) and CK light chain constant domain (pEE-CK), made in CHO-T cells; also called candidate 022
For B11, the “Fluorescent signal level (sample/background)” value in assay [1] worked out at 9.57. The “Response” value in assay [2] is 0.013 nm.

B12: Antibody 01-033 (antibody, human IgG1, kappa, L234A L235A, V domains shown)
VH: EVQLVQSGGGLVQPGGSLRLSCAASGFTFSSGLMSWVRQAPGGFEWVSGYNGGSDRAGFADSVEGRFTISRDNAKNTLYLQMNSLKPEDTAVYYCARYIANSGTYYWDYWGQGTTVTVSS
VL: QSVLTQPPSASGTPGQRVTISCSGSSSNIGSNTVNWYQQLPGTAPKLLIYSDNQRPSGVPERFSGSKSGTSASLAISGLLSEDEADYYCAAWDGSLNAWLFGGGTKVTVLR
notes: Full-length human IgG1 with L234A/L235A (pEE-HCLALA IgG1 vector) and CK light chain constant domain (pEE-CK), made in CHO-T cells; also called candidate 033
With B12, in assay [1], the “Fluorescent signal level (sample/background)” value came out at 14.7. Further, the “Response” value in assay [2] was -0.0078 nm.

For the origin of these results see patent US20250304707A1 (JOINT STOCK COMPANY BIOCAD, published 2025).
